Test results reported in paper PMC8385062, “Deciphering ion transport and ATPase coupling in the intersubunit tunnel of KdpFABC” (Nature Communications, 2021).
Numbering of substitutions follows the chain as printed. Names and notes keep the numbering of the source.

B1: KdpFABC (nucleotide / vanadate rows, site in KdpB) (Escherichia coli K-12) (protein)
chain: MSRKQLALFEPTLVVQALKEAVKKLNPQAQWRNPVMFIVWIGSLLTTCISIAMASGAMPGNALFSAAISGWLWITVLFANFAEALAEGRSKAQANSLKGVKKTAFARKLREPKYGAAADKVPADQLRKGDIVLVEAGDIIPCDGEVIEGGASVDESAITGESAPVIRESGGDFASVTGGTRILSDWLVIECSVNPGETFLDRMIAMVEGAQRRKTPNEIALTILLIALTIVFLLATATLWPFSAWGGNAVSVTVLVALLVCLIPTTIGGLLSAIGVAGMSRMLGANVIATSGRAVEAAGDVDVLLLDKTGTITLGNRQASEFIPAQGVDEKTLADAAQLASLADETPEGRSIVILAKQRFNLRERDVQSLHATFVPFTAQSRMSGINIDNRMIRKGSVDAIRRHVEANGGHFPTDVDQKVDQVARQGATPLVVVEGSRVLGVIALKDIVKGGIKERFAQLRKMGIKTVMITGDNRLTAAAIAAEAGVDDFLAEATPEAKLALIRQYQAEGRLVAMTGDGTNDAPALAQADVAVAMNSGTQAAKEAGNMVDLDSNPTKLIEVVHIGKQMLMTRGSLTTFSIANDVAKYFAIIPAAFAATYPQLNALNIMCLHSPDSAILSAVIFNALIIVFLIPLALKGVSYKPLTASAMLRRNLWIYGLGGLLVPFIGIKVIDLLLTVCGLV
B2: KdpFABC (nucleotide / vanadate rows, site in KdpB) (Escherichia coli K-12; F232A) (protein)
chain: B1 chain with F232A

Substrate: Nc1ncnc2c1ncn2[C@@H]1O[C@H](COP(=O)(O)OP(=O)(O)OP(=O)(O)O)[C@@H](O)[C@H]1O
Experiment: purified protein
Details: 1 mM KCl, 37 °C

Protein | Km [µM] | Km (K+-uncoupled variant) [µM]
B1 | 150 | 
B2 |  | 100
